Test results taken from patent US20110300138A1 (published 2011).

What was measured:
Experiment in all cases: cell-based or functional assay
[1] = target: wild type TSHR expressed in CHO cells (human) (UniProt P16473)
[2] = target: TSHR with Lys250 mutated to Ala (expressed in CHO cells) (human) (UniProt P16473)
[3] = target: wild type TSHR expressed in CHO cells (human) (UniProt P16473); remark: listed apart in the source
[4] = target: human TSHR with Glu251 mutated to Ala expressed in CHO cells (human) (UniProt P16473)

5B3 IgG (human monoclonal antibody to GAD, negative control for K1-70)
% inhibition of TSH stimulation; 5B3 10 µg/mL; Experiment 1 [1]: 0.1%
% inhibition of TSH stimulation; 5B3 10 µg/mL; Experiment 2 [1]: 0%
% inhibition of TSH stimulation; 5B3 100 µg/mL; Experiment 1 [1]: 0%
% inhibition of TSH stimulation; 5B3 100 µg/mL; Experiment 2 [1]: 0%
Cyclic AMP produced; 5B3 10 µg/mL + TSH 3 ng/mL; Experiment 1 [1]: 77.8 pmol/mL
Cyclic AMP produced; 5B3 10 µg/mL + TSH 3 ng/mL; Experiment 2 [1]: 90.6 pmol/mL
Cyclic AMP produced; 5B3 100 µg/mL + TSH 3 ng/mL; Experiment 1 [1]: 79.9 pmol/mL
Cyclic AMP produced; 5B3 100 µg/mL + TSH 3 ng/mL; Experiment 2 [1]: 87.5 pmol/mL
% inhibition of TSH stimulation; 5B3 10 µg/mL; Experiment 1 [2]: 0%
% inhibition of TSH stimulation; 5B3 10 µg/mL; Experiment 2 [2]: 14%
% inhibition of TSH stimulation; 5B3 100 µg/mL; Experiment 1 [2]: 0%
% inhibition of TSH stimulation; 5B3 100 µg/mL; Experiment 2 [2]: 1%
Cyclic AMP produced; 5B3 10 µg/mL + TSH 3 ng/mL; Experiment 1 [2]: 67.7 pmol/mL
Cyclic AMP produced; 5B3 10 µg/mL + TSH 3 ng/mL; Experiment 2 [2]: 47.1 pmol/mL
Cyclic AMP produced; 5B3 100 µg/mL + TSH 3 ng/mL; Experiment 1 [2]: 66.1 pmol/mL
Cyclic AMP produced; 5B3 100 µg/mL + TSH 3 ng/mL; Experiment 2 [2]: 54.7 pmol/mL
Mutated/wild type (%) of cyclic AMP produced; 5B3 10 µg/mL + TSH 3 ng/mL; Experiment 1 [2]: 87%
Mutated/wild type (%) of cyclic AMP produced; 5B3 10 µg/mL + TSH 3 ng/mL; Experiment 2 [2]: 52%
Mutated/wild type (%) of cyclic AMP produced; 5B3 100 µg/mL + TSH 3 ng/mL; Experiment 1 [2]: 83%
Mutated/wild type (%) of cyclic AMP produced; 5B3 100 µg/mL + TSH 3 ng/mL; Experiment 2 [2]: 62%
% inhibition of TSH stimulation; 5B3 10 µg/mL [3]: 5%
% inhibition of TSH stimulation; 5B3 100 µg/mL [3]: 11%
Cyclic AMP produced; 5B3 10 µg/mL + TSH 3 ng/mL [3]: 92.9 pmol/mL
Cyclic AMP produced; 5B3 100 µg/mL + TSH 3 ng/mL [3]: 86.3 pmol/mL
% inhibition of TSH stimulation; 5B3 10 µg/mL [4]: 10%
% inhibition of TSH stimulation; 5B3 100 µg/mL [4]: 0%
Cyclic AMP produced; 5B3 10 µg/mL + TSH 3 ng/mL [4]: 68.7 pmol/mL
Cyclic AMP produced; 5B3 100 µg/mL + TSH 3 ng/mL [4]: 76.7 pmol/mL
Mutated/wild type (%) of cyclic AMP produced; 5B3 10 µg/mL + TSH 3 ng/mL [4]: 74%
Mutated/wild type (%) of cyclic AMP produced; 5B3 100 µg/mL + TSH 3 ng/mL [4]: 89%
